Measured values as given in the supplement of paper PMC5998384.

Assays:
HeLa Kyoto [1] = assay: solubility in G1/S (NP-40 vs SDS abundance) (log2 ratio); higher = more soluble; conditions: cell cycle stage: G1/S
HeLa Kyoto [2] = assay: melting temperature (median over replicates), in situ; higher = more thermally stable
HeLa Kyoto [3] = assay: solubility change mitosis vs G1/S (difference of NP-40 vs SDS log2 ratios) (log2 ratio difference); higher = more soluble in mitosis
HeLa Kyoto [4] = assay: thermal stability score vs G1/S (z-score of summed log2 fold changes over temperatures); higher = more thermally stable than in G1/S
[5] = cell cycle stage: early G1 (4.5 h after nocodazole release)
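For melting temperature (median over replicates), in situ in this document: HeLa Kyoto cells synchronized by double thymidine or nocodazole block, proteins quantified by TMT10plex mass spectrometry, three independent biological replicates.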
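For solubility change mitosis vs G1/S (difference of NP-40 vs SDS log2 ratios) in this document: synchronized HeLa Kyoto cells (double thymidine block for G1/S, nocodazole release for mitosis), protein amounts in NP-40 versus SDS lysates quantified by mass spectrometry, three biological replicates.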
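For solubility in G1/S (NP-40 vs SDS abundance) in this document: HeLa Kyoto cells arrested at G1/S by double thymidine block, proteins quantified by TMT10plex mass spectrometry in mild NP-40 versus SDS extracts, three biological replicates.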
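For thermal stability score vs G1/S (z-score of summed log2 fold changes over temperatures) in this document: synchronized HeLa Kyoto cells, proteins quantified by TMT10plex mass spectrometry, three biological replicates, mitosis taken 0.5 h after nocodazole release, G1/S directly after double thymidine block.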

In the case of “MSLKNEPRVNTSALQKIAADMSNIIENLDTRELHFEGEEVDYDVSPSDPKIQEVYIPFSAIYNTQGFKEPNIQTYLSGCPIKAQVLEVERFTSTTRVPSINLYTIELTHGEFKWQVKRKFKHFQEFHRELLKYKAFIRIPIPTRRHTFRRQNVREEPREMPSLPRSSENMIREEQFLGRRKQLEDYLTKILKMPMYRNYHATTEFLDISQLSFIHDLGPKGIEGMIMKRSGGHRIPGLNCCGQGRACYRWSKRWLIVKDSFLLYMKPDSGAIAFVLLVDKEFKIKVGKKETETKYGIRIDNLSRTLILKCNSYRHARWWGGAIEEFIQKHGTNFLKDHRFGSYAAIQENALAKWYVNAKGYFEDVANAMEEANEEIFITDWWLSPEIFLKRPVVEGNRWRLDCILKRKAQQGVRIFIMLYKEVELALGINSEYTKRTLMRLHPNIKVMRHPDHVSSTVYLWAHHEKLVIIDQSVAFVGGIDLAYGRWDDNEHRLTDVGSVKRVTSGPSLGSLPPAAMESMESLRLKDKNEPVQNLPIQKSIDDVDSKLKGIGKPRKFSKFSLYKQLHRHHLHDADSISSIDSTSSYFNHYRSHHNLIHGLKPHFKLFHPSSESEQGLTRPHADTGSIRSLQTGVGELHGETRFWHGKDYCNFVFKDWVQLDKPFADFIDRYSTPRMPWHDIASAVHGKAARDVARHFIQRWNFTKIMKSKYRSLSYPFLLPKSQTTAHELRYQVPGSVHANVQLLRSAADWSAGIKYHEESIHAAYVHVIENSRHYIYIENQFFISCADDKVVFNKIGDAIAQRILKAHRENQKYRVYVVIPLLPGFEGDISTGGGNALQAIMHFNYRTMCRGENSILGQLKAELGNQWINYISFCGLRTHAELEGNLVTELIYVHSKLLIADDNTVIIGSANINDRSMLGKRDSEMAVIVQDTETVPSVMDGKEYQAGRFARGLRLQCFRVVLGYLDDPSEDIQDPVSDKFFKEVWVSTAARNATIYDKVFRCLPNDEVHNLIQLRDFINKPVLAKEDPIRAEEELKKIRGFLVQFPFYFLSEESLLPSVGTKEAIVPMEVWT [PLD1]”, the “solubility in G1/S (log2)” value (HeLa Kyoto [1]) is reported as -0.336, the melting temperature (HeLa Kyoto [2]; cell cycle stage: G1/S) is reported as 51.6 °C and the melting temperature (HeLa Kyoto [2]; cell cycle stage: mitosis) is reported as 51.7 °C. For the same substance, the “solubility change mitosis (log2)” value (HeLa Kyoto [3]) was -0.0809, the thermal stability score (HeLa Kyoto [4]; [5]) was -0.632 and the thermal stability score (HeLa Kyoto [4]; cell cycle stage: mitosis) was -0.457.
For “MPATRKPMRYGHTEGHTEVCFDDSGSFIVTCGSDGDVRIWEDLDDDDPKFINVGEKAYSCALKSGKLVTAVSNNTIQVHTFPEGVPDGILTRFTTNANHVVFNGDGTKIAAGSSDFLVKIVDVMDSSQQKTFRGHDAPVLSLSFDPKDIFLASASCDGSVRVWQISDQTCAISWPLLQKCNDVINAKSICRLAWQPKSGKLLAIPVEKSVKLYRRESWSHQFDLSDNFISQTLNIVTWSPCGQYLAAGSINGLIIVWNVETKDCMERVKHEKGYAICGLAWHPTCGRISYTDAEGNLGLLENVCDPSGKTSSSKVSSRVEKDYNDLFDGDDMSNAGDFLNDNAVEIPSFSKGIINDDEDDEDLMMASGRPRQRSHILEDDENSVDISMLKTGSSLLKEEEEDGQEGSIHNLPLVTSQRPFYDGPMPTPRQKPFQSGSTPLHLTHRFMVWNSIGIIRCYNDEQDNAIDVEFHDTSIHHATHLSNTLNYTIADLSHEAILLACESTDELASKLHCLHFSSWDSSKEWIIDLPQNEDIEAICLGQGWAAAATSALLLRLFTIGGVQKEVFSLAGPVVSMAGHGEQLFIVYHRGTGFDGDQCLGVQLLELGKKKKQILHGDPLPLTRKSYLAWIGFSAEGTPCYVDSEGIVRMLNRGLGNTWTPICNTREHCKGKSDHYWVVGIHENPQQLRCIPCKGSRFPPTLPRPAVAILSFKLPYCQIATEKGQMEEQFWRSVIFHNHLDYLAKNGYEYEESTKNQATKEQQELLMKMLALSCKLEREFRCVELADLMTQNAVNLAIKYASRSRKLILAQKLSELAVEKAAELTATQVEEEEEEEDFRKKLNAGYSNTATEWSQPRFRNQVEEDAEDSGEADDEEKPEIHKPGQNSFSKSTNSSDVSAKSGAVTFSSQGRVNPFKVSASSKEPAMSMNSARSTNILDNMGKSSKKSTALSRTTNNEKSPIIKPLIPKPKPKQASAASYFQKRNSQTNKTEEVKEENLKNVLSETPAICPPQNTENQRPKTGFQMWLEENRSNILSDNPDFSDEADIIKEGMIRFRVLSTEERKVWANKAKGETASEGTEAKKRKRVVDESDETENQEEKAKENLNLSKKQKPLDFSTNQKLSAFAFKQE [WDHD1]”, the “solubility in G1/S (log2)” value (HeLa Kyoto [1]) was -0.1, the melting temperature (HeLa Kyoto [2]; cell cycle stage: G1/S) was 47.9 °C and the melting temperature (HeLa Kyoto [2]; cell cycle stage: mitosis) was 49.6 °C. The “solubility change mitosis (log2)” value (HeLa Kyoto [3]) was -0.0991, the thermal stability score (HeLa Kyoto [4]; [5]) was 2.58 and the thermal stability score (HeLa Kyoto [4]; cell cycle stage: mitosis) was 6.16.
In the case of “MPVDLSKWSGPLSLQEVDEQPQHPLHVTYAGAAVDELGKVLTPTQVKNRPTSISWDGLDSGKLYTLVLTDPDAPSRKDPKYREWHHFLVVNMKGNDISSGTVLSDYVGSGPPKGTGLHRYVWLVYEQDRPLKCDEPILSNRSGDHRGKFKVASFRKKYELRAPVAGTCYQAEWDDYVPKLYEQLSGK [PEBP1]”, the “solubility in G1/S (log2)” value (HeLa Kyoto [1]) is reported as 0.607, the melting temperature (HeLa Kyoto [2]; cell cycle stage: G1/S) is reported as 56.9 °C and the melting temperature (HeLa Kyoto [2]; cell cycle stage: mitosis) is reported as 57.3 °C. The “solubility change mitosis (log2)” value (HeLa Kyoto [3]) was 0.21, the thermal stability score (HeLa Kyoto [4]; [5]) was -0.593 and the thermal stability score (HeLa Kyoto [4]; cell cycle stage: mitosis) was -3.2.
With “MAAGVDCGDGVGARQHVFLVSEYLKDASKKMKNGLMFVKLVNPCSGEGAIYLFNMCLQQLFEVKVFKEKHHSWFINQSVQSGGLLHFATPVDPLFLLLHYLIKADKEGKFQPLDQVVVDNVFPNCILLLKLPGLEKLLHHVTEEKGNPEIDNKKYYKYSKEKTLKWLEKKVNQTVAALKTNNVNVSSRVQSTAFFSGDQASTDKEEDYIRYAHGLISDYIPKELSDDLSKYLKLPEPSASLPNPPSKKIKLSDEPVEAKEDYTKFNTKDLKTEKKNSKMTAAQKALAKVDKSGMKSIDTFFGVKNKKKIGKV [RNASEH2B]” the “solubility in G1/S (log2)” value (HeLa Kyoto [1]) was 0.517, the melting temperature (HeLa Kyoto [2]; cell cycle stage: G1/S) was 48.8 °C and the melting temperature (HeLa Kyoto [2]; cell cycle stage: mitosis) was 49.7 °C. The “solubility change mitosis (log2)” value (HeLa Kyoto [3]) was -0.0965, the thermal stability score (HeLa Kyoto [4]; [5]) was -0.0838 and the thermal stability score (HeLa Kyoto [4]; cell cycle stage: mitosis) was 0.982.
With “MELQDPKMNGALPSDAVGYRQEREGFLPSRGPAPGSKPVQFMDFEGKTSFGMSVFNLSNAIMGSGILGLAYAMAHTGVIFFLALLLCIALLSSYSIHLLLTCAGIAGIRAYEQLGQRAFGPAGKVVVATVICLHNVGAMSSYLFIIKSELPLVIGTFLYMDPEGDWFLKGNLLIIIVSVLIILPLALMKHLGYLGYTSGLSLTCMLFFLVSVIYKKFQLGCAIGHNETAMESEALVGLPSQGLNSSCEAQMFTVDSQMSYTVPIMAFAFVCHPEVLPIYTELCRPSKRRMQAVANVSIGAMFCMYGLTATFGYLTFYSSVKAEMLHMYSQKDPLILCVRLAVLLAVTLTVPVVLFPIRRALQQLLFPGKAFSWPRHVAIALILLVLVNVLVICVPTIRDIFGVIGSTSAPSLIFILPSIFYLRIVPSEVEPFLSWPKIQALCFGVLGVLFMAVSLGFMFANWATGQSRMSGH [SLC38A5]” the “solubility in G1/S (log2)” value (HeLa Kyoto [1]) was -0.0136, the melting temperature (HeLa Kyoto [2]; cell cycle stage: G1/S) was 56.1 °C and the melting temperature (HeLa Kyoto [2]; cell cycle stage: mitosis) was 53.1 °C. For the same substance, the “solubility change mitosis (log2)” value (HeLa Kyoto [3]) was -0.0437, the thermal stability score (HeLa Kyoto [4]; [5]) was -1.85 and the thermal stability score (HeLa Kyoto [4]; cell cycle stage: mitosis) was -3.24.
For “MAAPGAPAEYGYIRTVLGQQILGQLDSSSLALPSEAKLKLAGSSGRGGQTVKSLRIQEQVQQTLARKGRSSVGNGNLHRTSSVPEYVYNLHLVENDFVGGRSPVPKTYDMLKAGTTATYEGRWGRGTAQYSSQKSVEERSLRHPLRRLEISPDSSPERAHYTHSDYQYSQRSQAGHTLHHQESRRAALLVPPRYARSEIVGVSRAGTTSRQRHFDTYHRQYQHGSVSDTVFDSIPANPALLTYPRPGTSRSMGNLLEKENYLTAGLTVGQVRPLVPLQPVTQNRASRSSWHQSSFHSTRTLREAGPSVAVDSSGRRAHLTVGQAAAGGSGNLLTERSTFTDSQLGNADMEMTLERAVSMLEADHMLPSRISAAATFIQHECFQKSEARKRVNQLRGILKLLQLLKVQNEDVQRAVCGALRNLVFEDNDNKLEVAELNGVPRLLQVLKQTRDLETKKQITDHTVNLRSRNGWPGAVAHACNPSTLGGQGGRITRSGVRDQPDQHGLLWNLSSNDKLKNLMITEALLTLTENIIIPFSGWPEGDYPKANGLLDFDIFYNVTGCLRNMSSAGADGRKAMRRCDGLIDSLVHYVRGTIADYQPDDKATENCVCILHNLSYQLEAELPEKYSQNIYIQNRNIQTDNNKSIGCFGSRSRKVKEQYQDVPMPEEKSNPKGVEWLWHSIVIRMYLSLIAKSVRNYTQEASLGALQNLTAGSGPMPTSVAQTVVQKESGLQHTRKMLHVGDPSVKKTAISLLRNLSRNLSLQNEIAKETLPDLVSIIPDTVPSTDLLIETTASACYTLNNIIQNSYQNARDLLNTGGIQKIMAISAGDAYASNKASKAASVLLYSLWAHTELHHAYKKAQFKKTDFVNSRTAKAYHSLKD [PKP2]”, the “solubility in G1/S (log2)” value (HeLa Kyoto [1]) was -0.953, the melting temperature (HeLa Kyoto [2]; cell cycle stage: G1/S) was 50.7 °C and the melting temperature (HeLa Kyoto [2]; cell cycle stage: mitosis) was 49.9 °C. The “solubility change mitosis (log2)” value (HeLa Kyoto [3]) was 0.0433, the thermal stability score (HeLa Kyoto [4]; [5]) was -1.03 and the thermal stability score (HeLa Kyoto [4]; cell cycle stage: mitosis) was -0.99.
With ZWILCH the “solubility in G1/S (log2)” value (HeLa Kyoto [1]) was 0.0446, the melting temperature (HeLa Kyoto [2]; cell cycle stage: G1/S) was 50.9 °C and the melting temperature (HeLa Kyoto [2]; cell cycle stage: mitosis) was 50.2 °C. For the same substance, the “solubility change mitosis (log2)” value (HeLa Kyoto [3]) was -0.229, the thermal stability score (HeLa Kyoto [4]; [5]) was 0.346 and the thermal stability score (HeLa Kyoto [4]; cell cycle stage: mitosis) was 0.376.
